Data published in the supplement of paper PMC7125110.
± gives the standard error. Variants at the floor of the assay were thinned out.

B1: glmS ribozyme (parent)
chain: AUAAAAGCGCCAGAACUACAGAAAUGUAGUUGACGAGGAGGAGGUUUAUCGAAUUUUCGGCGGAUGCCUCCAAA

Variants of: B1
Assay: self-cleavage kobs at 2500 uM GlcN6P; higher = faster cleavage; RNA array
Conditions: with glucosamine-6-phosphate
Procedure, shortened: (§1)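 Using a hybridised Cy3 probe at 37 °C, barcoded ribozyme variants transcribed in situ by E. coli RNA polymerase on sequenced MiSeq chips were monitored across tiles imaged over ~14 h. The flow contained glucosamine-6-phosphate from 40 μM to 10 mM in HEPES/KCl/Mg(OAc)2 buffer. Signals were normalised to baseline and to non-cleaving reference variants before per-tile medians were fit to one- or two-exponential decays to yield kobs. Weighted Michaelis–Menten fits across concentrations gave kcat and KM.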

Point of comparison: AUAAAAGCGCCAGAACUACAGAAAUGUAGUUUACGAGGAGGAGGUUUAUCGAAUUUUCGGCGGAUACCUACAAA [G32U G66A C70A], “self-cleavage kobs at 2500 uM GlcN6P” value 0.00086 ± 0.00036 s⁻¹. Against it:
- AUAAAAGCGCCAGAACUACAGAAAUGUAGUUCACGAGGAGGAGGUUUAUCGAAUUUUUGGCGGAGGCCUCCAAA [G32C C58U U65G] — lower, < 1e-05 s⁻¹
- AUAAAAGCGCCAGAACUACAGAAAUGUAGUUGGCGAGGAGGAGGUUUAUCGGAUUUUCGGCGAAUGCCUCCAAA [A33G A52G G63A] — lower, < 1e-05 s⁻¹
- AUAAAAGCGCCAGAACUACAGAAAUGUAGUUGGCGAGGAGGAGGUGUAUCGAAUUUUCGGCGGAUGCUUCGAAA [A33G U46G C68U C71G] — 4.7-fold lower, 0.000183 ± 5.3e-05 s⁻¹
- AUAAAAGCGCCAGAACUACAGAAAUGUAGUUGUCGAGGCGGAGGUUUAUCGAAUUUUCGGCCGAUGCCUCCAAA [A33U A39C G62C] — lower, < 1e-05 s⁻¹
- AUAAAAGCGCCAGAACUACAGAAAUGUAGUUGGCGAGGAGGAGAUUUAGCGAAUUUUCGGCGGAUGCCUCCAAA [A33G G44A U49G] — lower, < 1e-05 s⁻¹
- AUAAAAGCGCCAGAACUACAGAAAUGUAGUUGUCGACGAGGAGGUUUAUCGAAUUUUCGGCGGAUGCCUGCAAA [A33U G37C C70G] — lower, < 1e-05 s⁻¹
- AUAAAAGCGCCAGAACUACAGAAAUGUAGUUGCCGAGGAGGAGGUUUAUUGAAUUCUCGGCGGAUGCCUCCAAA [A33C C50U U56C] — lower, < 1e-05 s⁻¹
- AUAAAAGCGCCAGAACUACAGAAAUGUAGUUUACGAGGAGGAGGUUUAUCGAAUUUUCAGCGGAUGCGUCCAAA [G32U G59A C68G] — within error, 0.000713 ± 0.00028 s⁻¹
- AUAAAAGCGCCAGAACUACAGAAAUGUAGUUGGCGAGGAGGUGGUUUAUCGAAUUUUCGGCGGAUGCCUUCAAA [A33G A42U C70U] — lower, < 1e-05 s⁻¹
- AUAAAAGCGCCAGAACUACAGAAAUGUAGUUGGCGGGGAGGAGGUUUAUCGUAUUUUCGGCGGAUGCCUCCAAA [A33G A36G A52U] — lower, < 1e-05 s⁻¹
- AUAAAAGCGCCAGAACUACAGAAAUGUAGUUUACGAGGAGGAGGUCUAUCGAAUUUUCGGCGGAUGCCUCCAAA [G32U U46C] — 22-fold lower, 3.86e-05 ± 1.4e-05 s⁻¹
- AUAAAAGCGCCAGAACUACAGAAAUGUAGUUGUCGAGGAGGAUGUUUAUCGAAUUUUCGGCGGACGCCUCCAAA [A33U G43U U65C] — lower, < 1e-05 s⁻¹
- AUAAAAGCGCCAGAACUACAGAAAUGUAGUUUACGAGGAGCAGGUUUAUCGAAUUUUCAGCGGAUGCCUCCAAA [G32U G41C G59A] — lower, < 1e-05 s⁻¹
- AUAAAAGCGCCAGAACUACAGAAAUGUAGUUGGCAAGGAGGAGUUUUAUCGAAUUUUCCGCGGAUGCCUUCAAA [A33G G35A G44U G59C C70U] — lower, < 1e-05 s⁻¹
- AUAAAAGCGCCAGAACUACAGAAAUGUAGUUCACGGGGAGGAGGUUCAUCGAAUUUUCGGCGGAUGCCUCCAAA [G32C A36G U47C] — lower, < 1e-05 s⁻¹
- AUAAAAGCGCCAGAACUACAGAAAUGUAGUUCACGAGGAGGAGGUUAAUCGAAUUUUCGGCGGGUGCAUCCAAA [G32C U47A A64G C68A] — lower, < 1e-05 s⁻¹
- AUAAAAGCGCCAGAACUACAGAAAUGUAGUUUACGAGGAGGAGGUUUUUCCAAUUUUCGGCGGAUGCCUCCAAA [G32U A48U G51C] — lower, < 1e-05 s⁻¹
- AUAAAAGCGCCAGAACUACAGAAAUGUAGUUUACGAGGAGGAGGUUUAUCGAAUUGUCGGCGGAUUCCUCCAAA [G32U U56G G66U] — 13-fold lower, 6.54e-05 ± 1.6e-05 s⁻¹
- AUAAAAGCGCCAGAACUACAGAAAUGUAGUUUACAAGGAGGAGGUUUAUCGAAUUUUCGGCGGGUGCCUCUAAA [G32U G35A A64G C71U] — lower, < 1e-05 s⁻¹
- AUAAAAGCGCCAGAACUACAGAAAUGUAGUUGCCGAGGAGCAGGUUUAUCGAAUUUUCGGCGGAUGGCUCCAAA [A33C G41C C67G] — lower, < 1e-05 s⁻¹
- AUAAAAGCGCCAGAACUACAGAAAUGUAGUUGCCGAGGAGGAGGUUUAUCGAAUUUUCGGCGGAUGCGUUCAAA [A33C C68G C70U] — lower, < 1e-05 s⁻¹
- AUAAAAGCGCCAGAACUACAGAAAUGUAGUUUACGAGGAGGAGGUUUAUUGAAUUUUCGGCGGAUGCCUCCAAA [G32U C50U] — lower, < 1e-05 s⁻¹
- AUAAAAGCGCCAGAACUACAGAAAUGUAGUUUACCAGGAGGAGGUGUAUCGAAUUUUCGGCGGAUGCCUCCAAA [G32U G35C U46G] — lower, < 1e-05 s⁻¹
- AUAAAAGCGCCAGAACUACAGAAAUGUAGUUUAUGAGGAGGGGGUCUAUCGAAUUUUCGGCGGCUGCCUCCAAA [G32U C34U A42G U46C A64C] — lower, < 1e-05 s⁻¹
- AUAAAAGCGCCAGAACUACAGAAAUGUAGUUGCCGACGAGGAGGUUUAUCGAAUCUUCGGCGGAUGCCUCCAAA [A33C G37C U55C] — lower, < 1e-05 s⁻¹
- AUAAAAGCGCCAGAACUACAGAAAUGUAGUUUUCGAGGAGUAGGUUUAUCGAAUUUUCGGCGGAUGCCUCCAAA [G32U A33U G41U] — lower, < 1e-05 s⁻¹
- AUAAAAGCGCCAGAACUACAGAAAUGUAGUUCACGAAGAGGCGGUUUAUCGACUUUUCGGCGGAUGCCUCCAAA [G32C G37A A42C A53C] — lower, < 1e-05 s⁻¹
- AUAAAAGCGCCAGAACUACAGAAAUGUAGUUCACGCGGAGGAGGUUUAUCCACUUUUCGGCGGAUACCUCCAAA [G32C A36C G51C A53C G66A] — lower, < 1e-05 s⁻¹
- AUAAAAGCGCCAGAACUACAGAAAUGUAGUUGCCGAGGAGGAGGUUUAUCAAACUUUCGGCGGAUGCCUCCAAA [A33C G51A U54C] — lower, < 1e-05 s⁻¹
- AUAAAAGCGCCAGAACUACAGAAAUGUAGUUGAAGAGGAGGUGGUUAAUCGAAUUUUCGGCGGAUGCCUCCAAA [C34A A42U U47A] — lower, < 1e-05 s⁻¹
- AUAAAAGCGCCAGAACUACAGAAAUGUAGUUUACGAGGAGGAGGUUUAUCGACUAUUCGGCGGAUGCCUCCAAA [G32U A53C U55A] — 16-fold lower, 5.38e-05 ± 1.8e-05 s⁻¹
- AUAAAAGCGCCAGAACUACAGAAAUGUAGUUGCCGAGGAGGAGGUUUAUCAAUUUUUCGGCGGAUGCCUCCAAA [A33C G51A A53U] — lower, < 1e-05 s⁻¹
- AUAAAAGCGCCAGAACUACAGAAAUGUAGUUGGCGAGGAGGUGGUUUAACGAAUUUUCGACGGAUGCCUCCAAA [A33G A42U U49A G60A] — lower, < 1e-05 s⁻¹

Variants of: B1
Assay: self-cleavage kobs at 10000 uM GlcN6P; higher = faster cleavage; RNA array
Conditions: with glucosamine-6-phosphate
Procedure, shortened: as §1

Point of comparison: AUAAAAGCGCCAGAACUACAGAAAUGUAGUUUACGAGGAGGAGGUCUAUCGAAUUUUCGGCGGAUGCCUCCAAA [G32U U46C], “self-cleavage kobs at 10000 uM GlcN6P” value 0.000136 ± 1.8e-05 s⁻¹. Against it:
- AUAAAAGCGCCAGAACUACAGAAAUGUAGUUGGCGGGGAGGAGGUUUAUCGUAUUUUCGGCGGAUGCCUCCAAA [A33G A36G A52U] — lower, < 1e-05 s⁻¹
- AUAAAAGCGCCAGAACUACAGAAAUGUAGUUUACGAGGAGGAGGUUUAUUGAAUUUUCGGCGGAUGCCUCCAAA [G32U C50U] — lower, < 1e-05 s⁻¹
